The target of data set [1] is QSOX1B–V5 (quiescin sulfhydryl oxidase 1, splice variant B, V5-tagged) (human) (UniProt O00391). Put plainly: SEC; protein secreted for 3 h into serum-free medium, concentrated and buffer-exchanged (gel-filtration buffer with 0.03% Triton X-100 by the legend, 0.02% DDM by the methods), S200 PC3.2/30 column; fractions analysed by Western blot. For orientation: Size exclusion chromatography separates by hydrodynamic size, large species first.

Data set [2] concerns the target cleaved QSOX1A (soluble product of the proteolytic processing of QSOX1A–V5, without the TM domain and the V5 tag) (human). Put plainly: SEC; cell lysate (2% DDM) of the QSOX1A–V5 cell line, Sephadex 200 PC3.2/30 column, 50 mM Tris/HCl pH 7.5, 150 mM NaCl, 1 mM EDTA, 0.02% DDM; fractions analysed by Western blot (anti-V5, anti-QSOX1A).
For data set [3] the target is unchanged. Put plainly: SEC; protein secreted for 3 h into serum-free medium, concentrated and buffer-exchanged (gel-filtration buffer with 0.03% Triton X-100 by the legend, 0.02% DDM by the methods), S200 PC3.2/30 column; fractions analysed by Western blot.
Data set [4] deals with the molecule itself. Put plainly: cross-linking; thiol-specific cross-linker BMH, 0.1 mM, added to intact cells in KHM buffer, 30 min on ice, stopped with 20 mM DTT; lysates analysed by Western blot or by immunoisolation (anti-V5–agarose, then anti-QSOX1A) of radiolabelled proteins; MS of the cross-linked product (results not shown). (In general: A western blot detects proteins with antibodies after separation by electrophoresis.)

By stoichiometry N is commonly meant a count of units in the complex or per binding partner.

With “QSOX1B–V5 (quiescin sulfhydryl oxidase 1, splice variant B, V5-tagged) (from UniProt O00391-2 30-604) (enzyme)”, the stoichiometry N in data set [1] amounted to 2. For the molecule “cleaved QSOX1A (soluble product of the proteolytic processing of QSOX1A–V5, without the TM domain and the V5 tag) (domain or fragment)”, the stoichiometry N in data set [2] and in data set [3] was 2 each time.

B1: QSOX1A–V5 (quiescin sulfhydryl oxidase 1, splice variant A, V5-tagged, uncleaved) (enzyme, human, UniProt O00391 30-747, looked up)
chain: APRSALYSPSDPLTLLQADTVRGAVLGSRSAWAVEFFASWCGHCIAFAPTWKALAEDVKAWRPALYLAALDCAEETNSAVCRDFNIPGFPTVRFFKAFTKNGSGAVFPVAGADVQTLRERLIDALESHHDTWPPACPPLEPAKLEEIDGFFARNNEEYLALIFEKGGSYLGREVALDLSQHKGVAVRRVLNTEANVVRKFGVTDFPSCYLLFRNGSVSRVPVLMESRSFYTAYLQRLSGLTREAAQTTVAPTTANKIAPTVWKLADRSKIYMADLESALHYILRIEVGRFPVLEGQRLVALKKFVAVLAKYFPGRPLVQNFLHSVNEWLKRQKRNKIPYSFFKTALDDRKEGAVLAKKVNWIGCQGSEPHFRGFPCSLWVLFHFLTVQAARQNVDHSQEAAKAKEVLPAIRGYVHYFFGCRDCASHFEQMAAASMHRVGSPNAAVLWLWSSHNRVNARLAGAPSEDPQFPKVQWPPRELCSACHNERLDVPVWDVEATLNFLKAHFSPSNIILDFPAAGSAARRDVQNVAAAPELAMGALELESRNSTLDPGKPEMMKSPTNTTPHVPAEGPEASRPPKLHPGLRAAPGQEPPEHMAELQRNEQEQPLGQWHLSKRDTGAALLAESRAEKNRLWGPLEVRRVGRSSKQLVDIPEGQLEARAGRGRGQWLQVLGGGFSYLDISLCVGLYSLSFMGLLAMYTYFQAKIRALKGHAGHPAA
notes: human QSOX1A, the long splice variant of QSOX1 with 143 additional C-terminal amino acids including the single-pass TM domain; uncleaved (full-length) form; Membrane-integrated, V5 on the cytosolic side; also called V5-tagged QSOX1A; uncleaved QSOX1A–V5; source: HT1080, stably overexpressing (cross-linking in cells, SEC of lysate); HT1080, transiently co-transfected, in lysate (co-assembly); not …
For B1, the “stoichiometry N” value in data set [4] was determined as 2.

(Values after publication PMC3749868, “Proteolytic processing of QSOX1A ensures efficient secretion of a potent disulfide catalyst” (Biochemical Journal, 2013).)
